Experimental findings from paper PMC10679507 are described below.

Some targets named below: Asp115 (UniProt position 115, LNWLIDVPMLL); Asp250 (UniProt position 250, TYTIADVSSKV); Glu10 (UniProt position 10, GNATFENYIGL).
Test in all cases: UV-vis
Common to all, as to details: room temperature; 0.4 M NaCl; 6-mix buffer (citric acid 5.48 mM; ADA 1.84 mM; MOPS 4.16 mM; TAPS 5.00 mM; CHES 3.24 mM; CAPS 5.56 mM); dark (unphotolyzed) state, lipid-reconstituted

As usually defined, the pKa is the negative logarithm of the acid dissociation constant. Read a high pKa as a group that holds its proton tightly. Consider “Sodium pump rhodopsin IaNaR (Indibacter alkaliphilus)”, for which the values for the pKa with Asp115, with Asp250 and with Glu10 were 5.5, 3.2 and 4.1, respectively.
Consider “Sodium pump rhodopsin IaNaR D115N (Indibacter alkaliphilus; D115N)”, for which the figures for the pKa with Asp250 and with Glu10 were 2.5 and 4.6, respectively.
For the substance “Sodium pump rhodopsin IaNaR D250N (Indibacter alkaliphilus; D250N)”, the pKa with Asp115 is reported as 5.0; in the data set with Glu10 it was 2.8.
Consider “Sodium pump rhodopsin IaNaR E10Q/E159Q/R242Q (Indibacter alkaliphilus; E10Q;E159Q;R242Q)”, for which the pKa turned out to be 7.1 with Asp115 and 3.6 with Asp250.
In the case of “Sodium pump rhodopsin IaNaR E10Q/R242Q (Indibacter alkaliphilus; E10Q;R242Q)”, the pKa is listed as 5.7 with Asp115 and 3.8 with Asp250.
Consider “Sodium pump rhodopsin IaNaR E159A (Indibacter alkaliphilus; E159A)”, for which the pKa with Asp115 came out at 5.6; in the data set with Asp250, 3.3.
With “Sodium pump rhodopsin IaNaR E159Q (Indibacter alkaliphilus; E159Q)”, the values for the pKa with Asp250 and in the data set with Glu10 were 3.1 and 3.7, respectively.
“Sodium pump rhodopsin IaNaR H225A (Indibacter alkaliphilus; H225A)”: the pKa in the data set with Asp115 is 5.8; with Asp250, 3.0; with Glu10, 4.3.
Regarding “Sodium pump rhodopsin IaNaR R242Q (Indibacter alkaliphilus; R242Q)”, the pKa with Asp115 turned out to be 6.4; with Glu10, 4.4.
